Measured values published in patent US20110190200A1 (INDIANA UNIVERSITY RESEARCH AND TECHNOLOGY, published 2011).
Read-outs that look alike come from different tables or passages of the source. Numbered stars: 1 amine (or outer) side, 2 acyl side, 3 side chain; on linkers, the order of the positions; unused ones are H or OH. Square brackets hold non-standard residues; d marks the D form. Side chains are listed from the residue outwards. Ends that are not written are not given here. * marks the point of attachment. γGlu = O=C(O)[C@H](CCC(=O)[*:2])N[*:1]; Palmitoyl = CCCCCCCCCCCCCCCC(=O)*; Myristoyl = CCCCCCCCCCCCCC(=O)*; Dab = NCC[C@H](N)C(=O)O; Aib = CC(C)(N)C(=O)O

Experiments:
Experiment in all cases: cell-based or functional assay
[1] = biological target: T1, glucagon receptor (human, UniProt P47871 26-477)
T1 sequence (P47871 26-477): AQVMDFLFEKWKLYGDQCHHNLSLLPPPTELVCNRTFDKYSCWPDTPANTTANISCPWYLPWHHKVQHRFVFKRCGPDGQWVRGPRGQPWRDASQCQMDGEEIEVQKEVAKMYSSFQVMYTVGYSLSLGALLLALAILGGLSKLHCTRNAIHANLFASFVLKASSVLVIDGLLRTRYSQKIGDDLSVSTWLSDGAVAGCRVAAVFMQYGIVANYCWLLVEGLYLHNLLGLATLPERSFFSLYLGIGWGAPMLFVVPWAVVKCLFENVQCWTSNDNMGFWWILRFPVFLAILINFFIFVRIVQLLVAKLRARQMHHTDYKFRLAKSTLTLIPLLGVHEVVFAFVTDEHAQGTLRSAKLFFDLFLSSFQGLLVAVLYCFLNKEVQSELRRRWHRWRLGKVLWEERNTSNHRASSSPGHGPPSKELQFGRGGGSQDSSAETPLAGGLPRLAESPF

[2] = biological target: T2, GLP-1 receptor (UniProt P43220 24-463, limits assumed)
[3] = biological target: T1, glucagon receptor; remark: listed apart in the source
[4] = biological target: T2, GLP-1 receptor; remark: listed apart in the source
[5] = biological target: T1, glucagon receptor; remark: listed apart in the source
[6] = biological target: T2, GLP-1 receptor; remark: listed apart in the source
Target sequence in this assay (P43220 24-463 limits assumed): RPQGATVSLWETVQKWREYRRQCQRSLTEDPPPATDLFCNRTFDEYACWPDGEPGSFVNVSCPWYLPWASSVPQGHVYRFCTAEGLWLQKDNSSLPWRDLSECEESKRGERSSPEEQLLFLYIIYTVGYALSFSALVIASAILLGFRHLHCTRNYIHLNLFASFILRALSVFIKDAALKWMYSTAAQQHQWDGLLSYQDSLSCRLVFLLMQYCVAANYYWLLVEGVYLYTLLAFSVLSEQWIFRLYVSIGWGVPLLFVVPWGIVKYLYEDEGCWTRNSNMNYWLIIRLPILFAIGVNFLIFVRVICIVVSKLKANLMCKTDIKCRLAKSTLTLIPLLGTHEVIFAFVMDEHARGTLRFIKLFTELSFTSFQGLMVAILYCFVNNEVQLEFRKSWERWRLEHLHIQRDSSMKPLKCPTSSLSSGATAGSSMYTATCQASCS

[7] = biological target: T1, glucagon receptor; remark: listed apart in the source

B1: HSDab(Ac)…ibRRAADFVAWLLDTGPSSGAPPPS amide (peptide)
peptide: HS[Dab](Ac)GTFTSDYSKYLD[Aib]RRAADFVAWLLDTGPSSGAPPPS-NH2
modifications: N-terminus assumed
SMILES: CC(=O)NCC[C@H](NC(=O)[C@H](CO)NC(=O)[C@@H](N)Cc1c[nH]cn1)C(=O)NCC(=O)N[C@H](C(=O)N[C@@H](Cc1ccccc1)C(=O)N[C@H](C(=O)N[C@@H](CO)C(=O)N[C@@H](CC(=O)O)C(=O)N[C@@H](Cc1ccc(O)cc1)C(=O)N[C@@H](CO)C(=O)N[C@@H](CCCCN)C(=O)N[C@@H](Cc1ccc(O)cc1)C(=O)N[C@@H](CC(C)C)C(=O)N[C@@H](CC(=O)O)C(=O)NC(C)(C)C(=O)N[C@@H](CCCNC(=N)N)C(=O)N[C@@H](CCCNC(=N)N)C(=O)N[C@@H](C)C(=O)N[C@@H](C)C(=O)N[C@@H](CC(=O)O)C(=O)N[C@@H](Cc1ccccc1)C(=O)N[C@H](C(=O)N[C@@H](C)C(=O)N[C@@H](Cc1c[nH]c2ccccc12)C(=O)N[C@@H](CC(C)C)C(=O)N[C@@H](CC(C)C)C(=O)N[C@@H](CC(=O)O)C(=O)N[C@H](C(=O)NCC(=O)N1CCC[C@H]1C(=O)N[C@@H](CO)C(=O)N[C@@H](CO)C(=O)NCC(=O)N[C@@H](C)C(=O)N1CCC[C@H]1C(=O)N1CCC[C@H]1C(=O)N1CCC[C@H]1C(=O)N[C@@H](CO)C(N)=O)[C@@H](C)O)C(C)C)[C@@H](C)O)[C@@H](C)O
- % activity* [1]: 113%
- EC50 (nM) at Glucagon Receptor [1]: 0.023 nM

Binder: HS[Dab](Ac)GTFTSDYSKYLD[Aib]RRASDFVSWLLDE [HSDab(Ac)…ibRRASDFVSWLLDE]
- % activity* [1]: 54%
- EC50 (nM) at Glucagon Receptor [1]: 0.048 nM

Binder: HS[Dab](Ac)GTFTSDYSKYLD[Aib]RRATDFVTWLLDE [HSDab(Ac)…ibRRATDFVTWLLDE]
- % activity* [1]: 46%
- EC50 (nM) at Glucagon Receptor [1]: 0.057 nM

Binder: H[Aib]QGTFTSDK([γGlu-γGlu-Palmitoyl])SKYLD[Aib]RRAQDFVC(PEG 40 kDa)WLMNT-NH2 [Peptide 80* (Table 10)]
- EC50 at GLP-1 Receptor [2]: 0.042 nM
- EC50 at Glucagon Receptor [3]: 0.108 nM

B2: Peptide 77** (Table 11) (peptide)
peptide: H[Aib]QGTFTSDK(Myristoyl)SKYLD[Aib]RRAQDFVCWLMNT-NH2
modifications: N-terminus assumed
SMILES: CCCCCCCCCCCCCC(=O)NCCCC[C@H](NC(=O)[C@H](CC(=O)O)NC(=O)[C@H](CO)NC(=O)[C@@H](NC(=O)[C@H](Cc1ccccc1)NC(=O)[C@@H](NC(=O)CNC(=O)[C@H](CCC(N)=O)NC(=O)C(C)(C)NC(=O)[C@@H](N)Cc1c[nH]cn1)[C@@H](C)O)[C@@H](C)O)C(=O)N[C@@H](CO)C(=O)N[C@@H](CCCCN)C(=O)N[C@@H](Cc1ccc(O)cc1)C(=O)N[C@@H](CC(C)C)C(=O)N[C@@H](CC(=O)O)C(=O)NC(C)(C)C(=O)N[C@@H](CCCNC(=N)N)C(=O)N[C@@H](CCCNC(=N)N)C(=O)N[C@@H](C)C(=O)N[C@@H](CCC(N)=O)C(=O)N[C@@H](CC(=O)O)C(=O)N[C@@H](Cc1ccccc1)C(=O)N[C@H](C(=O)N[C@@H](CS)C(=O)N[C@@H](Cc1c[nH]c2ccccc12)C(=O)N[C@@H](CC(C)C)C(=O)N[C@@H](CCSC)C(=O)N[C@@H](CC(N)=O)C(=O)N[C@H](C(N)=O)[C@@H](C)O)C(C)C
- EC50 at GLP-1 Receptor [4]: 0.063 nM
- EC50 at Glucagon Receptor [5]: 0.144 nM

B3: Peptide 78** (Table 11) (peptide)
peptide: H[Aib]QGTFTSDK([γGlu-γGlu-Myristoyl])SKYLD[Aib]RRAQDFVCWLMNT-NH2
modifications: N-terminus assumed
SMILES: CCCCCCCCCCCCCC(=O)N[C@@H](CCC(=O)N[C@@H](CCC(=O)NCCCC[C@H](NC(=O)[C@H](CC(=O)O)NC(=O)[C@H](CO)NC(=O)[C@@H](NC(=O)[C@H](Cc1ccccc1)NC(=O)[C@@H](NC(=O)CNC(=O)[C@H](CCC(N)=O)NC(=O)C(C)(C)NC(=O)[C@@H](N)Cc1c[nH]cn1)[C@@H](C)O)[C@@H](C)O)C(=O)N[C@@H](CO)C(=O)N[C@@H](CCCCN)C(=O)N[C@@H](Cc1ccc(O)cc1)C(=O)N[C@@H](CC(C)C)C(=O)N[C@@H](CC(=O)O)C(=O)NC(C)(C)C(=O)N[C@@H](CCCNC(=N)N)C(=O)N[C@@H](CCCNC(=N)N)C(=O)N[C@@H](C)C(=O)N[C@@H](CCC(N)=O)C(=O)N[C@@H](CC(=O)O)C(=O)N[C@@H](Cc1ccccc1)C(=O)N[C@H](C(=O)N[C@@H](CS)C(=O)N[C@@H](Cc1c[nH]c2ccccc12)C(=O)N[C@@H](CC(C)C)C(=O)N[C@@H](CCSC)C(=O)N[C@@H](CC(N)=O)C(=O)N[C@H](C(N)=O)[C@@H](C)O)C(C)C)C(=O)O)C(=O)O
- EC50 at GLP-1 Receptor [4]: 0.008 nM
- EC50 at Glucagon Receptor [5]: 0.009 nM

B4: Peptide 81** (Table 11) (peptide)
peptide: H[Aib]QGTFTSDK([Ala-Ala-Myristoyl])SKYLD[Aib]RRAQDFVCWLMNT-NH2
modifications: N-terminus assumed
SMILES: CCCCCCCCCCCCCC(=O)N[C@@H](C)C(=O)N[C@@H](C)C(=O)NCCCC[C@H](NC(=O)[C@H](CC(=O)O)NC(=O)[C@H](CO)NC(=O)[C@@H](NC(=O)[C@H](Cc1ccccc1)NC(=O)[C@@H](NC(=O)CNC(=O)[C@H](CCC(N)=O)NC(=O)C(C)(C)NC(=O)[C@@H](N)Cc1c[nH]cn1)[C@@H](C)O)[C@@H](C)O)C(=O)N[C@@H](CO)C(=O)N[C@@H](CCCCN)C(=O)N[C@@H](Cc1ccc(O)cc1)C(=O)N[C@@H](CC(C)C)C(=O)N[C@@H](CC(=O)O)C(=O)NC(C)(C)C(=O)N[C@@H](CCCNC(=N)N)C(=O)N[C@@H](CCCNC(=N)N)C(=O)N[C@@H](C)C(=O)N[C@@H](CCC(N)=O)C(=O)N[C@@H](CC(=O)O)C(=O)N[C@@H](Cc1ccccc1)C(=O)N[C@H](C(=O)N[C@@H](CS)C(=O)N[C@@H](Cc1c[nH]c2ccccc12)C(=O)N[C@@H](CC(C)C)C(=O)N[C@@H](CCSC)C(=O)N[C@@H](CC(N)=O)C(=O)N[C@H](C(N)=O)[C@@H](C)O)C(C)C
- EC50 at GLP-1 Receptor [4]: 0.018 nM

B5: Peptide 80** (Table 11) (peptide)
peptide: H[Aib]QGTFTSDK([γGlu-γGlu-Palmitoyl])SKYLD[Aib]RRAQDFVCWLMNT-NH2
modifications: N-terminus assumed
SMILES: CCCCCCCCCCCCCCCC(=O)N[C@@H](CCC(=O)N[C@@H](CCC(=O)NCCCC[C@H](NC(=O)[C@H](CC(=O)O)NC(=O)[C@H](CO)NC(=O)[C@@H](NC(=O)[C@H](Cc1ccccc1)NC(=O)[C@@H](NC(=O)CNC(=O)[C@H](CCC(N)=O)NC(=O)C(C)(C)NC(=O)[C@@H](N)Cc1c[nH]cn1)[C@@H](C)O)[C@@H](C)O)C(=O)N[C@@H](CO)C(=O)N[C@@H](CCCCN)C(=O)N[C@@H](Cc1ccc(O)cc1)C(=O)N[C@@H](CC(C)C)C(=O)N[C@@H](CC(=O)O)C(=O)NC(C)(C)C(=O)N[C@@H](CCCNC(=N)N)C(=O)N[C@@H](CCCNC(=N)N)C(=O)N[C@@H](C)C(=O)N[C@@H](CCC(N)=O)C(=O)N[C@@H](CC(=O)O)C(=O)N[C@@H](Cc1ccccc1)C(=O)N[C@H](C(=O)N[C@@H](CS)C(=O)N[C@@H](Cc1c[nH]c2ccccc12)C(=O)N[C@@H](CC(C)C)C(=O)N[C@@H](CCSC)C(=O)N[C@@H](CC(N)=O)C(=O)N[C@H](C(N)=O)[C@@H](C)O)C(C)C)C(=O)O)C(=O)O
- EC50 at GLP-1 Receptor [4]: 0.008 nM
- EC50 at Glucagon Receptor [5]: 0.006 nM

B6: Peptide 79** (Table 11) (peptide)
peptide: H[Aib]QGTFTSDK([Ala-Ala-Palmitoyl])SKYLD[Aib]RRAQDFVCWLMNT-NH2
modifications: N-terminus assumed
SMILES: CCCCCCCCCCCCCCCC(=O)N[C@@H](C)C(=O)N[C@@H](C)C(=O)NCCCC[C@H](NC(=O)[C@H](CC(=O)O)NC(=O)[C@H](CO)NC(=O)[C@@H](NC(=O)[C@H](Cc1ccccc1)NC(=O)[C@@H](NC(=O)CNC(=O)[C@H](CCC(N)=O)NC(=O)C(C)(C)NC(=O)[C@@H](N)Cc1c[nH]cn1)[C@@H](C)O)[C@@H](C)O)C(=O)N[C@@H](CO)C(=O)N[C@@H](CCCCN)C(=O)N[C@@H](Cc1ccc(O)cc1)C(=O)N[C@@H](CC(C)C)C(=O)N[C@@H](CC(=O)O)C(=O)NC(C)(C)C(=O)N[C@@H](CCCNC(=N)N)C(=O)N[C@@H](CCCNC(=N)N)C(=O)N[C@@H](C)C(=O)N[C@@H](CCC(N)=O)C(=O)N[C@@H](CC(=O)O)C(=O)N[C@@H](Cc1ccccc1)C(=O)N[C@H](C(=O)N[C@@H](CS)C(=O)N[C@@H](Cc1c[nH]c2ccccc12)C(=O)N[C@@H](CC(C)C)C(=O)N[C@@H](CCSC)C(=O)N[C@@H](CC(N)=O)C(=O)N[C@H](C(N)=O)[C@@H](C)O)C(C)C
- EC50 at GLP-1 Receptor [4]: 0.008 nM
- EC50 at Glucagon Receptor [5]: 0.01 nM

B7: Peptide Chimera 2-AIB2-K30-acylated (peptide)
peptide: HXQGTFTSDYSKYLDEQAAKEFICWLMNTK
modifications: AIB at position 2; Lys at position 30 acylated with a C18 fatty acyl group; Cys at position 24 comprises a 40 kDa PEG molecule; C-terminal amide
- EC50 at the GLP-1 receptor [6]: 0.465 nM

Binder: H[Aib]QGTFTSDK(C18 fatty acyl)SKYLDEQAAKEFIC(PEG 40 kDa)WLMNT-NH2 [Peptide Chimera 2-AIB2-K10-acylated]
- EC50 at the GLP-1 receptor [6]: 0.007 nM

Binder: HSQGTFTSDYSKYLDSRRAQDFVQWLMNKK [glucagon analog K29, K30]
- Observed EC50s (nM) in Cells Overexpressing the Glucagon Receptor, Test 1 [7]: 0.89 nM

Binder: HSQGTFTSDYSKYLDSRRAQDFVQWLMNTKK [glucagon analog K30, K31]
- Observed EC50s (nM) in Cells Overexpressing the Glucagon Receptor, Test 2 [7]: 0.12 nM

Binder: HSQGTFTSDYSKYLDSRRAQDFVQWLMNTE [glucagon analog E30]
- Observed EC50s (nM) in Cells Overexpressing the Glucagon Receptor, Test 2 [7]: 0.04 nM

Binder: HSQGTFTSDYSKYLDSRRAQDFVQWLMDTE [glucagon analog D28, E30]
- Observed EC50s (nM) in Cells Overexpressing the Glucagon Receptor, Test 3 [7]: 0.05 nM

Binder: HSQGTFTSDYSKYLESRRAQDFVQWLMDT [glucagon analog D28, E15]
- Observed EC50s (nM) in Cells Overexpressing the Glucagon Receptor, Test 3 [7]: 0.15 nM
